{
  "source": "IntAct's records for PubMed 26224785",
  "parents": {"B1": {"name": "Microsomal triglyceride transfer protein large subunit (Homo sapiens), P55157 (parent)", "chain": "MILLAVLFLCFISSYSASVKGHTTGLSLNNDRLYKLTYSTEVLLDRGKGKLQDSVGYRISSNVDVALLWRNPDGDDDQLIQITMKDVNVENVNQQRGEKSIFKGKSPSKIMGKENLEALQRPTLLHLIHGKVKEFYSYQNEAVAIENIKRGLASLFQTQLSSGTTNEVDISGNCKVTYQAHQDKVIKIKALDSCKIARSGFTTPNQVLGVSSKATSVTTYKIEDSFVIAVLAEETHNFGLNFLQTIKGKIVSKQKLELKTTEAGPRLMSGKQAAAIIKAVDSKYTAIPIVGQVFQSHCKGCPSLSELWRSTRKYLQPDNLSKAEAVRNFLAFIQHLRTAKKEEILQILKMENKEVLPQLVDAVTSAQTSDSLEAILDFLDFKSDSSIILQERFLYACGFASHPNEELLRALISKFKGSIGSSDIRETVMIITGTLVRKLCQNEGCKLKAVVEAKKLILGGLEKAEKKEDTRMYLLALKNALLPEGIPSLLKYAEAGEGPISHLATTALQRYDLPFITDEVKKTLNRIYHQNRKVHEKTVRTAAAAIILNNNPSYMDVKNILLSIGELPQEMNKYMLAIVQDILRFEMPASKIVRRVLKEMVAHNYDRFSRSGSSSAYTGYIERSPRSASTYSLDILYSGSGILRRSNLNIFQYIGKAGLHGSQVVIEAQGLEALIAATPDEGEENLDSYAGMSAILFDVQLRPVTFFNGYSDLMSKMLSASGDPISVVKGLILLIDHSQELQLQSGLKANIEVQGGLAIDISGAMEFSLWYRESKTRVKNRVTVVITTDITVDSSFVKAGLETSTETEAGLEFISTVQFSQYPFLVCMQMDKDEAPFRQFEKKYERLSTGRGYVSQKRKESVLAGCEFPLHQENSEMCKVVFAPQPDSTSSGWF"}, "B2": {"name": "Microsomal triglyceride transfer protein large subunit (Homo sapiens), P55157 (parent)", "chain": "B1 chain", "partner": "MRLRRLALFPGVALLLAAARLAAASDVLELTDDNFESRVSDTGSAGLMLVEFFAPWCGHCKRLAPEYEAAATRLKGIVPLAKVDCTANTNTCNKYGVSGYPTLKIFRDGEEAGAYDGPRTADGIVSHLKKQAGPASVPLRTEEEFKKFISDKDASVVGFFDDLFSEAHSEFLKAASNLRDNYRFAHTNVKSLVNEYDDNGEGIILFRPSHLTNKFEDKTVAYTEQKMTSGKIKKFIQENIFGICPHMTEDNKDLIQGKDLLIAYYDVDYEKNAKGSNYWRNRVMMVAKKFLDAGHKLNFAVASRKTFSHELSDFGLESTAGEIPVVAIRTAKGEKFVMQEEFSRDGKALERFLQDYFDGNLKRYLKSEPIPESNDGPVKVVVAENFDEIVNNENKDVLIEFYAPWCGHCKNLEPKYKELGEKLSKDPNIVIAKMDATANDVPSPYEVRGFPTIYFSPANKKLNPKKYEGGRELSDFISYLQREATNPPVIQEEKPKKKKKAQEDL"}},
  "data": [
    {"variants_of": "B1", "details": "with apob_human APOB", "values": [
      {"variant": "D169E", "effect of a mutation on the interaction": "with no effect"},
      {"variant": "D169V", "effect of a mutation on the interaction": "with no effect"},
      {"variant": "K187L", "effect of a mutation on the interaction": "with no effect"},
      {"variant": "K187R", "effect of a mutation on the interaction": "with no effect"},
      {"variant": "K189L", "effect of a mutation on the interaction": "with no effect"},
      {"variant": "K189R", "effect of a mutation on the interaction": "with no effect"}
    ]},
    {"variants_of": "B2", "details": "with pdia3_chlae PDIA3, Q4VIT4", "values": [
      {"variant": "D169E", "effect of a mutation on the interaction": "with no effect"},
      {"variant": "D169V", "effect of a mutation on the interaction": "disrupting interaction strength"},
      {"variant": "K187L", "effect of a mutation on the interaction": "decreasing interaction strength"},
      {"variant": "K187R", "effect of a mutation on the interaction": "with no effect"},
      {"variant": "K189L", "effect of a mutation on the interaction": "decreasing interaction strength"},
      {"variant": "K189R", "effect of a mutation on the interaction": "with no effect"}
    ]},
    {"variants_of": "B2", "details": "with pdia3_chlae PDIA3, Q4VIT4", "remark": "another data set of the same source", "values": [
      {"variant": "D169V", "effect of a mutation on the interaction": "with no effect"},
      {"variant": "K187L", "effect of a mutation on the interaction": "with no effect"},
      {"variant": "K189L", "effect of a mutation on the interaction": "with no effect"}
    ]}
  ]
}
